The supplement of paper PMC9170038

Test system: K4 kissing-loop RNA reporter
Test: apparent KD of K4 kissing-loop reporter; higher = weaker reporter binding
Details: Eterna round: R107; input ligand: arginine 13.2 mM
Experimental: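 RNA-MaP round R107: designed RNA switches with theophylline, tryptophan, arginine or FMN aptamers are transcribed on-chip within common flanks. They are titrated with a labelled K4 kissing-loop RNA reporter in RNA-MaP buffer (100 mM Tris pH 7.5, 80 mM KCl, 4 mM MgCl2), without ligand or with the indicated ligand. Median apparent KD per design.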
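Note: bound reporter read as fluorescence of individual clusters on recovered sequencing chips by microscopy, with normalized cluster intensities fitted with a binding model.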

In order of rising “apparent KD of K4 kissing-loop reporter” value:
1. GGGCAUCUGGCUGAUACCAGUGAUAAAGGGUAAGAGACAGGGAGUGAUGUUCCCUUUAGCCACCCUUGGCAGCAGUUUAAGUUUG [Exclusion Theophylline B GF 17]  83.3 nM
2. AAUAUAAAGCAGUGAUGUUGCUUAUGAGAAGGAGCGCACGAAAGUGCAGGUAGGUCGCUCAGCCAAGUGGACGAAAACGUCCACA [whbob_SS_Arginine_A_sa106]  92.5 nM
3. UCGAAGGAUGGAAGGAGCGCUCGUCAGCCCUGCGAGUGAUGUUCGUGGGUAAAUAGUCGCGAGCAGGUAGGUCGCCAUCUUGAGC [Ritera]  111 nM
4. GCUAUGGUAGGAAGGAGCGCGGACGAAAUAUAUCGAGUGAUGUUCGAAUAAUUAAAUAAAACGCAGGUAGGUCGCCUACUAUAGC [Arginine B K4 25]  114 nM
5. UGCACGGGCUCGGCCGCCACUCCAGCGGGUCGCAAGGUCCGCUACUGAGUGAUGUUCGGUUGGAGGAGGACCGGGAGCCCGUGCG [#2 Exclusion - Tryptophan B Attempt #31 (HarryS)]  114 nM
6. AGGGUUUAACACGAUACCAGCCUGGAGGCCAGUGAUGUUGGCCGAUUUGAACAGAAUUAAGGCCCUUGGCAGCGUCUUUAAAACC [Biarat]  152 nM
7. AUCUUGUUUGGAGGAUAUUCUUUAUUUGACAUAACCUUCUAUAAGGUGCAGUGAUGUUGCAAUAUAGGAGAAGGUCGAGUGAGAU [Exclusion FMN B GF 18]  160 nM
8. GAACGGCGGGCGGCCGCCACUGGUAUACGAGUGAUGUUCGGAUAUACGUGAUGUAAGGUAAUUAUCAGGACCGGGUCAGAGCCGG [#16 K4 Tryptophan B Same State]  183 nM
9. UGCAGUGAUGUUGCUAUUUGUCUUGAUUAACGAGGACCGGUACGGCCGCCACUCGAUUUCUCUCUAAUCGAGUAUGUUGUUUAGU [#19 K4 Tryptophan A Exclusion]  184 nM
10. CCAUCGCUAUUCGAUACCAGUCAGGAGGUCUGUGACCUCCUAAUGGAGUGAUGUUCCUUAGACCCUUGGCAGCGAAUAGUGAUGG [#02 K4 Theophylline B Same State]  196 nM
11. GCCGUACGCAUGGAUACCAGAUCUAGACGCUUAGUGAUGUUAAGUAAUCUGGUUAGACCGAUCCCUUGGCAGCCAUGCGUACGGC  199 nM
12. GUCUCAAAAGAGGCAAGCACUCACGAGGACAAGGAUAUCAUAUCAAUGAGAAGGUGUCCUCGUCCUCAGUGAUGUUGAGGAGUGC [Omei KL FMN A SS E v4]  200 nM
13. GCCGUAGAUGGAAGGAGCGUGGUGGACUCGUGAAGUGAUGUUUCAAGUCGUUAUGCCCAACCACAGGUAGGUCGCCAUCUACGGC  204 nM
14. UUGAGCCGGACGUAAGUCCGGCUCUGCGAGCGAGGACCGGUACGGCCGCCACUCGGUGCAGUGAUGUUGCAUGGCCGCAAGGCCG [#2 Exclusion - Tryptophan A Attempt #5 (HarryS)]  233 nM
15. GCCGUACGCAUGGAUACCAGACAACCAUUCUAAAUUUUGUGUCCGGUAGUGAUGUUACCUGUCCCUUGGCAGCCAUGCGUACGGC  261 nM
16. UCUUAACUAAAAUAAUGGGAUACCAGUGAUACCAGCCAUAUGCAGGGCCCUUGGCAGCACCCUUGGCAGCCUCGAGUGAUGUUCG [KL-SSTheo-A7 #DoubleAptamer]  292 nM
17. UGUCAUUGGUCGGCCGCCACUAGGACCGGGUAUAACCUAGUGAUGUUAGUAAAUACGGCCGCCACUAGGACCGGGACCGAUGACU [KL-SSTryp-B18 #DoubleAptamer]  296 nM
18. UAAUUGCAGUGAUGUUGCAAAUGUCCUGACUAGGAUAUCAGGAAACUGAGAAGGAGUCCCUUCUAUUGCAACAAGAAGGAGGAUA [KL-SSFMN-A14]  300 nM
19. AGACUACCACACUGUCAAUAGACAGUGGACUAGGAUAUGCUGAUAAGCAGAAGGAGUGAUGUUCCUAGGUAGUCAAUAAAAUAAU [FmnAX 13 G28]  301 nM
20. GAGUUUCGUAAAGGAUAUUCUAGCUAAAGCCAUUAGUGAUGUUGAUGUACGGACGGAAGCCUGGCAGAAGAAGGUUAACAGGAUU [theeternabot_sameState_KL_FMN_B_24]  326 nM
21. AAAAUAAUCCAGUGAUGUUGGUUUCCAGAUACCAGCGACGAAAGUCGCCCUUGGCAGCUGUGGACGUACAAAAUAAGUACGUCCU  362 nM
22. AAGUCAUAGGCAGGAUAUGCAUUGUAGUAAGGCAAUAUAUACGUAUAGAGUGAUGUUUUGUACCAGGCAGAAGGGCUACAUCAGU [FMN B Excl V11 (+G)]  367 nM
23. AGUGAUGUGGGAAGGAGCGGUAUAAGAAUUCAGUGAUGUUGAAGUGUUGCAGAAAUAAAAGGCCAGGUAGGUCGCCUAGAUGUUA [KL-XARG B29]  384 nM
24. AGCUCAGAGUGACUCGAUAAGAGUCACAAACGAGGACCGGUACGGCCGCCACUCGAAAUAACGAGAGUGAUGUUCUCGCUGGGCA [FiskerMod 1 - Jieux - Same State Tryptophan A]  463 nM
25. GGAUCCACCAGUGAUGUUGGAGAAAACUCAAAGGAUAUGACGAAAGUCAGAAGGUUGUAGACUGGACAAAGUCCGGUCGGAUCCA [FmnA 19 A30+U56]  504 nM
26. AGUUCUUGCCGAAGGAGCGAGGCAGAGUGAUGUUCUGCAGGAGGUCGAAAGACCUCCCUGCCUCAGGUAGGUCGCGGCAUGAACA [Omei KL Arginine B Exc A v1]  590 nM
27. UUUCUACCGGGAAGGAGCGUGAAUGAUAAUGGAUAUAGUGAUGUUAUAUAUACGAACGAAUCGCAGGUAGGUCGCCCGGAUCACU [SSArgB.U]  859 nM
